Assay: yeast display, Sf9 membrane polyspecificity reagent, FACS + sequencing; frameworks hold sequencing errors
Summary of the method: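 Galactose-induced (36–48 hours) yeast carrying a synthetic nanobody display library were exposed to 10% biotinylated, detergent-solubilized Sf9 membrane reagent at 4 °C for 1 hour. FACS followed streptavidin microbead enrichment, using low and high (top ~1%) gates for expression (anti-HA) and reagent binding (streptavidin). Colony PCR, MiSeq 2 × 250 sequencing and CDR-length filtering followed. Labels for polyreactivity reflect the gate of origin.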

Sequence	polyreactivity (PSR sort gate)
QVQLVESGGGLVQAGGSLRLTCAASGSIYKYKAMGWYRQAPGKERELVAAIRWSGVGTRYADSVKGRFTISRDNAKNSLYLQMNSLKREDTAVYYCAADVSKYHDGHEYDYWGQGTQVTVSS	low polyreactivity
QVQLVESGGGLVQAGGSLRLTCAASGSTFDYNTMGWYRPAPGKETELVAAISESGGSTYYADSVKGRFTISRDNAKNTVYLQMNSLTPEDTAVYYCATDDFGGYFGEYDYWGQGTQVTVSS	low polyreactivity
QVQLVESGGGLVQAGGSLRLTCAASGSTFGWYAMGWYRQAPGKGRGVVAAITGDSASTYYADSVKGRFTISRDNAKNTVYLQTNSLKPEDTAVYYCAATKFSAFGSPPLIGYGYWGQGTQVTVSS	low polyreactivity
QVQLVESGGGLVQAGGSLRLTCAASGSTFIFKKYVMGWYRQAPGSERELVAVISRRGDSTYYADSVKRPFTISRDNAKNTVYLQMNSLKPEDTAVYYCGAGYSTAGLARYDYWGQGTQVTVSS	high polyreactivity
QVQLVESGGGLVQAGGSLRLTCAASGSTFKYYAMGWYRQAPGKERELVAAIDWNGGRTYYADSVKGRFTISRDNAKNTVYLQMNSLKPEDTAVYYCAKLGRAAQGNYYWGQGTQVTVSS	high polyreactivity
QVQLVESGGGLVQAGGSLRLTCAASGSTFSANAMGWYRPGPGKERELVAGISRSGGRTYYADSVKGRFTISRDNAKNTVYLQMNSLKPEDTAVYFCNDRRRGAGGYDYWGQGTQVTVSS	high polyreactivity
QVQLVESGGGLVQAGGSLRLTCAASGSTFSRYVIGWYRQEPGKERELVAAISRSGSTYYADSVKGRFTISRDNAKNTVYLQMNSLKPEDTAVYYCAASGSKSAGYGYWGQGTQVTVSS	high polyreactivity
QVQLVESGGGLVQAGGSLRLTCAASGSTFVLYARGWYRQAPGKERELVAAITRRGGDTYYADSVKGRFTISRDNAKNTVYLQMNSLKPEDTAVYFCATDYTTYGRYDYWGHGTQVTVSS	low polyreactivity
QVQLVESGGGLVQAGGSLRLTCAASGSTLYVYPMGWYRPAPGKERELVASINSGGSTNYADSVKGRFSISRDNAKNTVYLQMNSLKRVDTAVYYCNAEYYGWFHHYDYWGQGTQVTVSS	high polyreactivity
QVQLVESGGGLVQAGGSLRLTCAASGYIFLQYAMGWYRPAPGKERELVAAITYNGGITYYADSVKGRFTISRDNAKNTVYLQRNSLKPEDTAVYYCAADKNQDVSYVGFDYWGQGTQVTVSS	low polyreactivity
QVQLVESGGGLVQAGGSLRLTCAASGYIFPYNVMGWYRQAPGKERELVAAITWRVVRTYYADSVKGRFTISRDNAKNTVYLQMNSLKPEDTAVYYCAALSRQSGDYWGQGTQVTVSS	high polyreactivity
QVQLVESGGGLVQAGGSLRLTCAASGYIFYTYAMGWYRQAPGKERELVAGITGSGGSTYYADSVKGRFTISRDNAKNTVYLQMNSLKPEDTAVYYCAKDIYQIGYRRYDSWGQGTQVTVSS	low polyreactivity
QVQLVESGGGLVQAGGSLRLTCAASGYTFRGYAMGWYRQAPGKEREFVAAINWSDGSTYYADSVKGRFTISRDNAKNTVYLQMNSLKPEDTAVYYCNADQYYRVPDNYWGQGTQVTVSS	low polyreactivity
QVQLVESGGGLVQAGGSLRLTCAASGYTFWLNGMGWYRHAPGKERELVAAISSSGGSTYYADSVKGRFTISRDNAKNTVYLQMNSLKPEDTAVYDCAVDAYWRHWYYPYESHHDYWGQGTQVTVST	low polyreactivity
QVQLVESGGGLVQAGGSLRLTCAASGYTFYYAMGWYRQAPGKERELVAAITRGGSTYYADSVKGRFTISRDNAKNTVYLQMNSLKPEDTAVYYCATEYHAHYASRALYGYDHWGQGTQVTVSS	low polyreactivity
QVQLVESGGGLVQAGGSLRLTCAASVRTCYSYALGWYRQEPGKEMELVASISSGGGTNYADSVKGRFTISRYNAKNTVFLQMNSLKPEDTAVYYFAAYSSWGGFDYWGQGTQLTVSS	low polyreactivity
QVQLVESGGGLVQAGGSLRLTSADSGSTFSFSAMRWYRQAPGKERELVAAIRSSVGSTYYADSVKGRFTISRDNAKNTVYLQMNSLKPEDTAVYNCAATTHWFRSYREFYYWGQGTQVTVSS	high polyreactivity
QVQLVESGGGLVQAGGSLRLTWEAYGFTFKYYPMGWYRQAPGKEWELVADITRSGGSTYYADSVKGRFTISRDNAKITVYLEMYILKPEDTAVYYCAVDPVRYQYSYDYWCQGTQVTVSS	high polyreactivity
QVQLVESGGGLVQAGGSLRVICAASGSTFLENAMGWYRQAPGKERELVAAISRSGARTYYADSVKGRFTISRDNAKNTVYLQMNSLKPEDTAVYYCAASHGKNKASGPMDYWGQGTQVTVSS	high polyreactivity
QVQLVESGGGLVQAGGSLRVSCAASGFIFLYYAMGWYRQAPGKERELVADISRGADTKYADSVKGRFTISRDNAKNTVYLQMNSLKPEDTAVYYCATDITTFWFPYPGVELGYWGQGTQVTVSS	low polyreactivity
QVQLVESGGGLVQAGGSLRVSCAASGFIFTGYTMGWYRQAPGKERELLAAVSYRGGSTYYADSVKGRFTISRDNAKNTVYLQMNSLKPEDTAVNYCNAVWSNFRLGYDYWGQGTQVTVSS	high polyreactivity
QVQLVESGGGLVQAGGSLRVSCAASGFTFGPYDMGGSRQAPGKERELVAVIIGGDSTNYADSVKGRFTISRDNAKNTVYLQMNRLKPEDTAVYYCAADYIDRVGWMDYWGQGTQVTVSS	low polyreactivity

Sequence	polyreactivity (PSR sort gate)
QVQLVESGGGLVQAGGSLRVSCAASGFTFYVNAMGRYRQAPGKERELVAVISPSGGRTYYADSVKGRFTISRDNAKNTVYLQMNSLKPEDTAVYYCAAESGGYHWSTPYFDWLYYYWGQGTQVTVSS	low polyreactivity
QVQLVESGGGLVQAGGSLRVSCAASGIIFVVYDMGWYRQAPGKERELVAAINWSGGSTYYADSVKGRFTISRDNAKNTVYLQMNSLKPEDTAVYYCAAESFSDGSPYNYWGQGTQVTVSS	low polyreactivity
QVQLVESGGGLVQAGGSLRVSCAASGRIFDSYAMGWSRQAPGKERELVAVISNNDGTTYYADSVKGRFTISRDNAKTTVYLQMNSLKPEDTAVYYCNAVYSSGVDGSEGFDYWGQGTQVTVSS	low polyreactivity
QVQLVESGGGLVQAGGSLRVSCAASGRTFGVYTMGWYRLAPGKERELVAAITWGGGRTYYADSVKGRFTISRDNAKNTVYLHMNSLKPEDTAVYYRAARVRGQGSYHFGYWGQGTQVTVSS	high polyreactivity
QVQLVESGGGLVQAGGSLRVSCAASGRTFPYYDMGWYRQAPGKEREFVAAITWRGGSTYYADSVKGRFTISRDNAKNTVYLQMNSLKPEDSAVYYCATDSLRLYGGKRDLYYWGQGTQVTVSS	low polyreactivity
QVQLVESGGGLVQAGGSLRVSCAASGRTLRSYAMGWYRQAPGKERELVAAISRSGGSTYYADSVKGRFTISRDNAKNPVYLQMNSLKPEDTSVYYCATRYLRSLDYWGQGTQVTVSS	high polyreactivity
QVQLVESGGGLVQAGGSLRVSCAASGSIFHENAMGWYRPAPGKEWELVAAIDQTGSTYADSVKGRFTISRDNAKNTVYLQMNSLKPEDTAVYYCAKGDVSLDYPSLEFDYWGQGTQVTVSS	low polyreactivity
QVQLVESGGGLVQAGGSLRVSCAASGSIFHFYTMGWYRQAPGKERELVAAISSTGSTNYADSVKGRFTISRDNAKNTVYLQMNSLKPEDTAVYYCAAVGTYLAGYQFDYWGQGTQVTVSS	low polyreactivity
QVQLVESGGGLVQAGGSLRVSCAASGSIFIVYAMGWYRQAPGKDRELVATISSGGSTNYAVSVKGRFTISRDNAKNTVYVQMNTLKPEATAVYYCAAESYWGSGLVPGYDYWGQGTQGTVSS	low polyreactivity
QVQLVESGGGLVQAGGSLRVSCAASGSIFSLYTMGWYRQAPGKERELVAAISGSGGRTYYADSVKGRFTISRDNAKNTVYLQMNSLKPEDTAVYYCAADTRSYTYYYWGQGTQVTVSS	high polyreactivity
QVQLVESGGGLVQAGGSLRVSCAASGSIFSYYDMGWYRPAPGKERELVAAITDGGDRTYYADSVKGRFTISRDNAKNTVYLQMNSLKPEHTAVYYCAAVVSVNMYWGQGTQVTVSS	low polyreactivity
QVQLVESGGGLVQAGGSLRVSCAAYGRTFYRNTMGWYRQAPGKEREFVAAISATAGRTYYADSVKGRFTFSRDNAKNTVYLQKNSLKPEDTAVYYCAAVPLRNRWPNSWPALDYWGQGTQVTVSS	high polyreactivity
QVQLVESGGGLVQAGGSLSLICAASGFIFDVYAMGWYRQAPGKERELVAAISRSGGSTHYADSVKGRFTISRDNAKNTVYLQMNSLKPEDTAVYYFATRIRVGYAKYDYWGQGTQVTVSS	high polyreactivity
QVQLVESGGGLVQAGGSLSLICAASGFTFYIYAMGWSRQAPRKERELVAAISSSGGSTYYADSVKGRFTISRDNAKITVYLQMNSLKPEDTAVYYCARRLLRGSDWGQGTQVTVSS	high polyreactivity
QVQLVESGGGLVQAGGSLSLICAASGGTFERYAMGWYRQAPGKERELVAAISRSGGRTYYADSVKGRFTISRDNAKNSVYLQMNSLKPEDTAVYYCNSLGRYRMDYWGQGTQVTVSS	high polyreactivity
QVQLVESGGGLVQAGGSLSLICAASGLIFKYNDMGWYRQAPGKERELVAAISTSGGSTYYADSVKGRFTISRDNAKNTVYLQMNSLKPEDTAVYYCNARRQRNKSYNYWGQGTQVTVSS	high polyreactivity
QVQLVESGGGLVQAGGSLSLICAASGSTFRYYTMGWYRQAPGKERELVAVISRSDDSTYADSVKGRFTISRDNAKNTVYLQMNSLKPVDTAVYYCAAAGGLFFRSTVPRGDFWGQGTQVTVSS	low polyreactivity
QVQLVESGGGLVQAGGSLSLICAASRFTFDSYAMGWYRQAPGKERELVAAINYSGGRTDYADSVKGRFTISRDNAKNTVYLQMNSLKPVDTAVYYCAAKGVRWGQGTQVTVSS	high polyreactivity
QVQLVESGGGLVQAGGSLSLICDASRFTFGFYAMGWYRQAPGKERELHAAISTTVGSTYYADSVKGRFTISRDNAKNTVYLQMNSLKPEDTAVFYCAAEYTGYINYYIYEYWRQGTQVTVSS	low polyreactivity
QVQLVESGGGLVQAGGSLSLMCAASGGIFPRYTRGWYRQAPGKEREMVASISRSGASTYYADSVKGRFTISRDNAKNTVYLQMNSLKTEDTAVYYCNARFVTGYWYIWENYWGQGTQVTVSS	high polyreactivity
QVQLVESGGGLVQAGGSLSLRCAASGRTVGSYAMVWYRQAPGKERELVAVINGDGSTYYADSVKGRFTISRDNAKNTVYFQMNSLKPVDTAVYYCNNVSFYLGTRRVSLKHYYWGQGTQVTLSS	low polyreactivity
